Test results: patent publication US20090155176A1 (Novartis, published 2009)

Molecular target: T1, β2 construct alone (mock) expressed in 293 cells (UniProt P05107 23-769)
T1 construct: whole, on cells; Negative control transfectant; also called mock (β2) transfected cells
Assay: adhesion of transfected 293 cells to plate-bound ICAM-1-Ig

T1 sequence (P05107 23-769): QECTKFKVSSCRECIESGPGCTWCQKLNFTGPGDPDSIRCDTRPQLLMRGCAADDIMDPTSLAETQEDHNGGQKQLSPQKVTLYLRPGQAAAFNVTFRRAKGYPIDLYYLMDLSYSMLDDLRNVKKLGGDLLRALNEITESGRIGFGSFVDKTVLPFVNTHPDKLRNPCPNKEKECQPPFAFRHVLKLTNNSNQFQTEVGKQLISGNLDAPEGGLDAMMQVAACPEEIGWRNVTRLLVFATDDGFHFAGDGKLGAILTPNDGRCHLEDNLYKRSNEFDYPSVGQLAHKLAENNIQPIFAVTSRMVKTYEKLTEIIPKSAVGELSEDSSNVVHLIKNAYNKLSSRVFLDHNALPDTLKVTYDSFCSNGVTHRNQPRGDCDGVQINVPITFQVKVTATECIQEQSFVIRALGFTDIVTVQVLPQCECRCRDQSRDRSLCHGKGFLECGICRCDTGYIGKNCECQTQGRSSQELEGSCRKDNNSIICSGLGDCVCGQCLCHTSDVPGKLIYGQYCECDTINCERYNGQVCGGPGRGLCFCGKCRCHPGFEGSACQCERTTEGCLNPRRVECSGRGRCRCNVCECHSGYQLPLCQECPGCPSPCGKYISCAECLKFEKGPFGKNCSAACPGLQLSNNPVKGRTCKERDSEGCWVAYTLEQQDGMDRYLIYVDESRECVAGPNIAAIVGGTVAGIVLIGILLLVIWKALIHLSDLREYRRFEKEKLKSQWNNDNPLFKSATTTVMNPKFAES

binding result: no binding
B1: ICAM-1-Ig (Fc fusion, UniProt P05362 28-480, looked up)
chain: QTSVSPSKVILPRGGSVLVTCSTSCDQPKLLGIETPLPKKELLLPGNNRKVYELSNVQEDSQPMCYSNCPDGQSTAKTFLTVYWTPERVELAPLPSWQPVGKNLTLRCQVEGGAPRANLTVVLLRGEKELKREPAVGEPAEVTTTVLVRRDHHGANFSCRTELDLRPQGLELFENTSAPYQLQTFVLPATPPQLVSPRVLEVDTQGTVVCSLDGLFPVSEAQVHLALGDQRLNPTVTYGNDSFSAKASVSVTAEDEGTQRLTCAVILGNQSQETLQTVTIYSFPAPNVILTKPEVSEGTEVTVKCEAHPRAKVTLNGVPAQPLGPRAQLLLKATPEDNGRSFSCSATLEVAGQLIHKNQTRELRVLYGPRLDERDCPGNWTWPENSQQTPMCQAWGNPLPELKCLKDGTFPLPIGESVTVTRDLEGTYLCRARSTQGEVTRKVTVNVLSPRYE
notes: not shown: Ig portion
